Consider 4 molecules from article PMC12871931, “The importin‐alpha superfamily engages in ethylene signaling by shuttling [sequence] INSENSITIVE 2 from the endoplasmic reticulum to the nucleus” (The Febs Journal, 2025).

Ends that are not written are not given here. * marks the point of attachment. 5‑TAMRA = 5-carboxytetramethylrhodamine, N-terminal label, CN(C)c1ccc2c(-c3ccc(C(=O)*)cc3C(=O)[O-])c3ccc(N(C)C)cc3[o+]c2c1

Common to all, as to settings: both partners purified
In test [1] the target is T1, importin α4 (IMPα4), Arabidopsis thaliana, recombinant (Arabidopsis thaliana, UniProt O80480 1-538, biotin (Biotin-PEG4-NHS ester Protein Labeling Kit) in the BLI experiments only).
T1 construct: importin alpha isoform 4 of Arabidopsis thaliana; gene isolated from A. thaliana, cloned into pETEV21a; Unlabelled in fluorescence polarisation; biotinylated and held on streptavidin tips in BLI; source: E. coli BL21pRARE, purified (Ni2+-IMAC)
T1 sequence (O80480 whole entry, canonical isoform): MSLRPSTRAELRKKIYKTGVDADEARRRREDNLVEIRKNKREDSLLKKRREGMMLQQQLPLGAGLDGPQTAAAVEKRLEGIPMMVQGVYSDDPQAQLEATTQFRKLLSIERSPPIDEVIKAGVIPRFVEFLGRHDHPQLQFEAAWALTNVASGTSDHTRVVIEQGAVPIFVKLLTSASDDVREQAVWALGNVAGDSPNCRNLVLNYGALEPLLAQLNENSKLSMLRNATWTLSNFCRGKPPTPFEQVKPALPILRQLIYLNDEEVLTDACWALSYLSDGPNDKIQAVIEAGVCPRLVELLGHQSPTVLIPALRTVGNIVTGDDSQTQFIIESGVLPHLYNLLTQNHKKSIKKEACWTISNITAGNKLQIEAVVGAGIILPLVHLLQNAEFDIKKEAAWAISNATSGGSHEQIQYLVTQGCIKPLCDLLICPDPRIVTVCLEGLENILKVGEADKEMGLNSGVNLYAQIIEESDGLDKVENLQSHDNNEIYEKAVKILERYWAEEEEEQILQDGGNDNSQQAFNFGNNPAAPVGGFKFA
Nature of the test: BLI; Octet K2; biotinylated ΔIBB_IMPα1 or IMPα4 loaded (15 μM, 600 s) on streptavidin biosensors; peptides/protein in solution; 100 mM Tris pH 7.0, 100 mM KCl, 0.01% Tween 20; room temperature; 300 s association, 300 s dissociation; dose response curves, 1:2 heterogeneous ligand model.

The target in test [2] is T1, importin α4 (IMPα4), Arabidopsis …. Nature of the test: fluorescence polarisation; competition: TAMRA-NOP-1 and IMPα4 (6 μM) held constant, unlabelled competitor concentration varied; Logistic Fit in Origin; n = 3. (Polarisation of emitted light reports the rotation of a fluorescent probe.)
In test [3] the target is T2, importin α6 (IMPα6), Arabidopsis thaliana, recombinant (Arabidopsis thaliana, UniProt Q9FWY7 1-538).
T2 construct: importin alpha isoform 6 of Arabidopsis thaliana; gene synthesised by GenScript, cloned into pETEV21a; source: E. coli BL21pRARE, purified (Ni2+-IMAC)
T2 sequence (looked up): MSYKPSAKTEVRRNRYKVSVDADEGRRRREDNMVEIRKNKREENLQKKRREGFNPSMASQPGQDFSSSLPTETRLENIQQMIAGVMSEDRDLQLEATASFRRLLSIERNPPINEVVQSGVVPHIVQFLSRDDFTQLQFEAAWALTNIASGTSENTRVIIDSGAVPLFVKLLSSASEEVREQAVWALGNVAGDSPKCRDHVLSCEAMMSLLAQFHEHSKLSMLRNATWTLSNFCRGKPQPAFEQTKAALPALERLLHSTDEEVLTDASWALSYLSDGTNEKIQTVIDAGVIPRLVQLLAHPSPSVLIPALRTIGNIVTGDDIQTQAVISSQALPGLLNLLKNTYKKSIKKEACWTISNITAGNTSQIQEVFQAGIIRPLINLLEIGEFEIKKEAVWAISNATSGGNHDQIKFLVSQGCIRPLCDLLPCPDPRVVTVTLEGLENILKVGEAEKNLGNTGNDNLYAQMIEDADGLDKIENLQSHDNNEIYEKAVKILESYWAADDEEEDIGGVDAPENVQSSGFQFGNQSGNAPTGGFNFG
Nature of the test: fluorescence polarisation; direct titration: TAMRA-NOP-1 constant at 250 nM, IMPα protein concentration varied; 50 μL samples; LS55 spectrometer; Kd by Logistic Fit in Origin; three independent measurements.

The target in test [4] is T3, importin α8 (IMPα8), Arabidopsis thaliana, recombinant (Arabidopsis thaliana, UniProt Q9FJ92 1-441).
T3 construct: importin alpha isoform 8 of Arabidopsis thaliana (contains only ARM repeats, no IBB domain); gene isolated from A. thaliana, cloned into pETEV21a; source: E. coli BL21gold, purified (Ni2+-IMAC)
T3 sequence (looked up): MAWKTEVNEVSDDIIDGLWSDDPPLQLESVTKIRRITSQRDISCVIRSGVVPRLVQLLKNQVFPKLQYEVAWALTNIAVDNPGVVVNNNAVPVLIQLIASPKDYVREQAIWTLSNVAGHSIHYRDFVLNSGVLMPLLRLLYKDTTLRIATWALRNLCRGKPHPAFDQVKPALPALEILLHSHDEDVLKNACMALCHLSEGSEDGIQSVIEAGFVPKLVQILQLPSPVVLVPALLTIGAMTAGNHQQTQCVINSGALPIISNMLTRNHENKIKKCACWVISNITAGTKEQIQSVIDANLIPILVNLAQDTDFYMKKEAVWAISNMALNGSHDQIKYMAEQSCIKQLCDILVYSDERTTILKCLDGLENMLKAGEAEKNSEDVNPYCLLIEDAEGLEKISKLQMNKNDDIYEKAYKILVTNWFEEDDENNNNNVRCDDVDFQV
The test is described as above.

Test [5] addresses T4, importin α5 (IMPα5), Arabidopsis thaliana, recombinant (Arabidopsis thaliana, UniProt Q9FJ09 1-519).
T4 construct: importin alpha isoform 5 of Arabidopsis thaliana; gene synthesised by GenScript, cloned into pETEV21a; IMPα5 was additionally cloned into pETEV16b (N-terminal deca-His-tag); source: E. coli BL21pRARE, purified (Ni2+-IMAC)
T4 sequence (looked up): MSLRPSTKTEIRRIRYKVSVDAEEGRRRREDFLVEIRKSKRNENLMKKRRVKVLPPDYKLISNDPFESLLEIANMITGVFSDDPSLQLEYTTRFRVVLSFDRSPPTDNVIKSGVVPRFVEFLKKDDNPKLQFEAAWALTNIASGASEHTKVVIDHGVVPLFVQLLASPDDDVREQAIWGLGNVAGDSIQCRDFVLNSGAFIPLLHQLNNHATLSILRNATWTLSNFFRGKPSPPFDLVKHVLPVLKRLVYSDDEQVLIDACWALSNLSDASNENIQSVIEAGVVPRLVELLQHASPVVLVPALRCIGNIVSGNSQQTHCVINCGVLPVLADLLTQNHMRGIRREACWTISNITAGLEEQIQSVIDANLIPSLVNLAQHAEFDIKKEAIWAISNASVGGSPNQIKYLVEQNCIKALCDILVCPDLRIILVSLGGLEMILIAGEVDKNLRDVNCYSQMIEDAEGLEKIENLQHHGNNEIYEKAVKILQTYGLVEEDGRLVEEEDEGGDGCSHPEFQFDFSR
The description is as above.

For test [6], the target named is T5, importin α9 (IMPα9), Arabidopsis thaliana, recombinant (Arabidopsis thaliana, UniProt F4KF65 1-519).
T5 construct: importin alpha isoform 9 of Arabidopsis thaliana; gene synthesised by GenScript, cloned into pETEV21a; source: E. coli BL21pRARE, purified (Ni2+-IMAC)
T5 sequence (looked up): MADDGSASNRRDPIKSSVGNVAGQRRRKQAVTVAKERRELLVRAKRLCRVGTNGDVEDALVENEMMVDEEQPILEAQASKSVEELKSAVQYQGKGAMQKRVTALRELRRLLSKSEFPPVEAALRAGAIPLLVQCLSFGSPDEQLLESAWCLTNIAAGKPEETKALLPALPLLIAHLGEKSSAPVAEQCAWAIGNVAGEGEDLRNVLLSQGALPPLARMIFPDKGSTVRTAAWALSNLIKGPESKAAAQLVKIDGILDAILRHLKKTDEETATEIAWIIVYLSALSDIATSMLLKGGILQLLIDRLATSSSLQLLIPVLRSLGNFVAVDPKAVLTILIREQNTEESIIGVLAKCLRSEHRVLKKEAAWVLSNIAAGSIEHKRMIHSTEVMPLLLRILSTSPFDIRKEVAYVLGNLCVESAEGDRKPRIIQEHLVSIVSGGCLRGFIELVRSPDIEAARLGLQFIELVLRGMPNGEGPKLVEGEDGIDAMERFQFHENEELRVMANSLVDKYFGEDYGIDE
The description is as above.

Test [7] concerns the target T1, importin α4 (IMPα4), Arabidopsis …. The description is as above.
Test [8] has as its target T6, importin α3 (IMPα3), Arabidopsis thaliana, recombinant (Arabidopsis thaliana, UniProt O04294 1-531).
T6 construct: importin alpha isoform 3 of Arabidopsis thaliana; gene isolated from A. thaliana, cloned into pETEV21a; source: E. coli BL21pRARE, purified (Ni2+-IMAC)
The test is described as above.

In test [9] the target is T7, importin α2 (IMPα2), Arabidopsis thaliana, recombinant (Arabidopsis thaliana, UniProt F4JL11 1-535).
T7 construct: importin alpha isoform 2 of Arabidopsis thaliana; gene isolated from A. thaliana, cloned into pETEV21a; source: E. coli BL21pRARE, purified (Ni2+-IMAC)
T7 sequence (F4JL11 whole entry, canonical isoform): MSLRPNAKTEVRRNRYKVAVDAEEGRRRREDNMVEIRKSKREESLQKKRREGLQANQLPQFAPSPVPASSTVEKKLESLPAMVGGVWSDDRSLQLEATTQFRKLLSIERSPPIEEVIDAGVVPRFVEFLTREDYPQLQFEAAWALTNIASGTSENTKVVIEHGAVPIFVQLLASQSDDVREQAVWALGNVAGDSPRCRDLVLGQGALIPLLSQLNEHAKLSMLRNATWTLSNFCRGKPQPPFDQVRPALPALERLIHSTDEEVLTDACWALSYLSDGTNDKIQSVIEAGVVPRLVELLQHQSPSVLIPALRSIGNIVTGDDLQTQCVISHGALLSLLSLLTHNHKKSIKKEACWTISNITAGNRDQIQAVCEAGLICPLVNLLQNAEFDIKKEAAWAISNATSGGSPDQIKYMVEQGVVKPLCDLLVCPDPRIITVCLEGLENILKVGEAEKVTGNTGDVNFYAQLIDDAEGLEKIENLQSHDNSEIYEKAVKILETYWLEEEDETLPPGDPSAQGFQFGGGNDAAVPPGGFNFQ
The test is described as above.

T6 sequence (O04294 whole entry, canonical isoform): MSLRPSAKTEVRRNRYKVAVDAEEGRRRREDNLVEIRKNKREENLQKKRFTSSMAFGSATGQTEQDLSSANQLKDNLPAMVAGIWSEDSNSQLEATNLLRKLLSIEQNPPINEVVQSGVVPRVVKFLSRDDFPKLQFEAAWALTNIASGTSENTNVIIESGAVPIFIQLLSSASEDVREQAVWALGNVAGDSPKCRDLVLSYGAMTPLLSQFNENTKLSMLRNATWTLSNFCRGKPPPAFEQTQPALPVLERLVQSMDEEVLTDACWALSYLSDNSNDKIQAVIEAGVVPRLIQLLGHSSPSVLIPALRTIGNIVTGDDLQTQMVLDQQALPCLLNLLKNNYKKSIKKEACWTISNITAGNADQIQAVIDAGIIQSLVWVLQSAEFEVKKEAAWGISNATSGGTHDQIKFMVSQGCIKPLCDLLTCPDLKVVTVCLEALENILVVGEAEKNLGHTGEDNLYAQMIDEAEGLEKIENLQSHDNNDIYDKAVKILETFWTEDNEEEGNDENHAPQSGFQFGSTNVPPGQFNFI

B1: N41P‐1 (EIN2 residues 1229–1269) (peptide, UniProt Q9S814 1229-1269, looked up)
peptide: KDVEMAISCRKGRTGTAAGDVAFPKGKENLASVLKRYKRRL
notes: 41 residues; The methods speak of amidated C-termini and acetylated N-termini of 'the D-ri-peptides'; whether this holds for N41P-1 is not clear; also called extended EIN2‐NLS probe N41P‐1; source: synthetic peptide, bought: GenScript
As for B1, the dissociation constant (Kd) in test [1] is 9.8 µM; in test [2] it was 8.1 ± 1.1 µM.

B2: GB1‐AtEIN2C^1215–1281 (domain or fragment, Arabidopsis thaliana, UniProt Q9S814 1215-1281, looked up)
chain: KGKCTTAVTLLDLIKDVEMAISCRKGRTGTAAGDVAFPKGKENLASVLKRYKRRLSNKPVGMNQDGP
notes: cloned into pETEV16b with a GB1-domain at the N terminus to enhance solubility; also called GB1_AtEIN2^1215–1281; shortened EIN2 CEND; source: E. coli BL21pRARE, purified (Ni2+-IMAC); not shown: GB1 domain, N-terminal, kept
As to B2, in test [1], the Kd high was found to be 21.4 µM and the Kd low came to 0.455 µM. Moreover, in [2], the Kd was 22.1 ± 2.8 µM.

B3: NOP‐1 (EIN2 NLS peptide, EIN2 residues 1262–1269) (peptide)
peptide: LKRYKRRL
notes: 8 residues; The methods speak of amidated C-termini and acetylated N-termini of 'the D-ri-peptides'; whether this holds for NOP-1 is not clear; also called EIN2‐NLS core motif; basic EIN2‐NLS probe; source: synthetic peptide, bought: GenScript
Take B3: the Kd is 7.6 µM in [1] and 4.1 ± 0.4 µM in test [2].

B4: TAMRA‐NOP‐1 (EIN2 NLS peptide, N‐terminally labeled with 5‐TAMRA) (peptide)
peptide: {5‑TAMRA}-LKRYKRRL
notes: also called fluorescently labeled NOP‐1; source: synthetic peptide (solid-phase peptide synthesis, Fmoc, made in house)
B4: the Kd was 8.7 ± 1.5 µM in test [3]; 7.9 ± 0.2 µM in test [4]; 12.9 ± 0.9 µM in test [5]; 13.8 ± 0.9 µM in test [6]; ~6 µM in test [7]. The binding result in test [8] and in test [9] was “binds” each time.

Broadly, the Kd is a measure of binding affinity in units of concentration.
